These results are taken from patent US20240384250A1, “FIBROBLAST GROWTH FACTOR 23 MODULATING COMPOUNDS” (THE UAB RESEARCH FOUNDATION, priority 2021, published 2024).

“Also recorded” adds a separate entry of the source.

In experiment [1] the test system is FGF21 binding to FGFR isoforms 1c, 2c, 3c, 4. The experiment is described as follows: Pull-down and plate binding of FGF21 to FGFR isoforms with sKL or heparin. Details: species or system human. On the procedure: To study the interaction between Fc-tagged FGFR isoforms (Fc-FGFR), FGF isoforms, and sKL, immunoprecipitation studies were conducted. Protein A beads (6501, BioVision) and protein G beads (6511, BioVision) were used at 25 μl of a 50% stock slurry per sample in a total bead volume of 50 μl. Beads were washed 5× in activity buffer (50 mM Tris [pH 7.4], 200 mM NaCl, 0.01% Tween 20). Bead spin-down assays were all performed for 2 minutes at 5000 g. Beads were resuspended in 1 ml of activity buffer in a 1.5-ml snap cap tube. One microgram of Fc-FGFR1 to 4 was incubated with the beads for 1 hour on a bead rotator. Control samples were incubated with 2 μg of anti-FGF antibody instead of Fc-FGFR. […] Samples were analyzed using SDS-PAGE and Western blotting.
Proteins were coated on 96-well plates (MaxiSorp; 439454, Thermo Fisher Scientific), and proteins were added to wells in 100 μl of enzyme-linked immunosorbent assay (ELISA) coating buffer (E107, Bethyl Laboratories) with a lid placed overtop and incubated at 4° C. overnight. […] Reactions were stopped with ELISA stop solution (E115, Bethyl Laboratories) and analyzed using the Synergy HI plate reader (BioTek) at 450 nm wavelength. […] As a control to remove background absorbance values, wells were coated with an equal amount of BSA to match the amount of protein coated in experimental wells and treated the same as experimental wells. […]

For another experiment, the system named is male BALB/c mice. The experiment is described as follows: Serial FGF23 and heparin injections in mice, echocardiography and heart weight. The format is in vivo, mouse. The note with it: heparin 125 USP/kg and/or FGF23 40 μg/kg. On the procedure:
FGF23 injections were administered following a similar protocol established previously. 13,72,73 Briefly, 12-week-old male BALB/c mice (The Jackson Laboratory) underwent tail vein injections. The day before the experiment, mice underwent echocardiographic analysis, as described below. Mice were anesthetized in 2.5% isoflurane and placed on a heat pad. Each group consisted of 5 mice, and different groups were injected with isotonic saline, heparin, FGF23, or FGF23 and heparin combined. Per injection, 40 μg/kg of FGF23 and 125, 62.5, or 12.5 USP/kg of heparin dissolved in 200 μl of isotonic saline were used, with 8 hours were used between injections for a total of 5 consecutive days. All injections were performed via the lateral tail vein. On the morning of the sixth day, 16 hours after the final tail vein injection, animals underwent echocardiographic analysis and were killed. Middle sections of hearts were cut along the short axis and stored overnight in 4% phosphate-buffered formaldehyde solution. Sections were sent to IDEXX Laboratories for embedding, hematoxylin and eosin (H&E) staining, and sectioning. Sections for wheat germ agglutinin (WGA) labeling were not stained by IDEXX Laboratories.
Echocardiographic analysis was performed on day 6 of the experiment for FGF23-injected mice by using the Vevo 770 or Vevo 3100 imaging system (FUJIFILM VisualSonics). Animals were anesthetized with 1.5% isoflurane, and normal body temperature was maintained using a rectal probe for temperature monitoring. For analysis, both B- and M-mode images were obtained in the short- and long-axis views. Correct positioning of the transducer was ensured using B-mode imaging in the long-axis view before switching to the short-axis view. Image analysis was performed using Vevo 770 Workstation and Vevo LAB software (FUJIFILM VisualSonics).

Experiment [2] concerns adult rat ventricular myocytes (ARVMs). The experiment can be described thus: Calcium transients and cell shortening in adult rat ventricular myocytes. The format is cell-based. On the procedure:
As done before,^69 adult male Wistar rats (150-200 g) were killed and hearts were quickly removed and cannulated via the ascending aorta on a Langendorff system where they were retrograde perfused and digested by type II collagenase. Hearts were perfused with calcium-free Tyrode's solution supplemented with 0.2 mmol/L of ethyleneglycol-bis-((3-aminoethylether)-N,N, N′,N′-tetraacetic acid for 3 minutes. For the digestion, hearts were perfused with Tyrode's solution containing 0.1 mmol/L of CaCl2), 1 mg/ml of type II collagenase (Worthington), and 1 mg/ml of BSA for 3 to 4 minutes at room temperature. Cells were resuspended in Tyrode's solution containing 1 mmol/L of CaCl2). Tyrode's solution contains 130 mM NaCl, 5.4 mM KCl, 0.4 mM NaH2PO4, 0.5 mM MgCl2, 25 mM N-2-hydroxyethylpiperazine-N-2-ethanesulfonic acid, and 22 mM glucose. Adult rat ventricular myocytes (ARVMs) were loaded with the fluorescent Ca^2+ dye Fluo-3 AM (Thermo Fisher Scientific) for cytosolic Ca^2+ measurements. […] Cytosolic Ca^2+ transients were recorded under 1 Hz of field stimulation using 2 parallel platinum electrodes. […] Cell contraction was stimulated as the difference in cell length between rest and contraction (during electrical stimulation), expressed as a percentage of shortening of the cell length. […]

B1: sKL: recombinant soluble α-klotho ectodomain, mouse aa 35-982 and human aa 34-981, FLAG- or Strep/His-tagged, purified from HEK293 cells (protein)
chain: EPGDGAQTWARFSRPPAPEAAGLFQGTFPDGFLWAVGSAAYQTEGGWQQHGKGASIWDTFTHHPLAPPGDSRNASLPLGAPSPLQPATGDVASDSYNNVFRDTEALRELGVTHYRFSISWARVLPNGSAGVPNREGLRYYRRLLERLRELGVQPVVTLYHWDLPQRLQDAYGGWANRALADHFRDYAELCFRHFGGQVKYWITIDNPYVVAWHGYATGRLAPGIRGSPRLGYLVAHNLLLAHAKVWHLYNTSFRPTQGGQVSIALSSHWINPRRMTDHSIKECQKSLDFVLGWFAKPVFIDGDYPESMKNNLSSILPDFTESEKKFIKGTADFFALCFGPTLSFQLLDPHMKFRQLESPNLRQLLSWIDLEFNHPQIFIVENGWFVSGTTKRDDAKYMYYLKKFIMETLKAIKLDGVDVIGYTAWSLMDGFEWHRGYSIRRGLFYVDFLSQDKMLLPKSSALFYQKLIEKNGFPPLPENQPLEGTFPCDFAWGVVDNYIQVDTTLSQFTDLNVYLWDVHHSKRLIKVDGVVTKKRKSYCVDFAAIQPQIALLQEMHVTHFRFSLDWALILPLGNQSQVNHTILQYYRCMASELVRVNITPVVALWQPMAPNQGLPRLLARQGAWENPYTALAFAEYARLCFQELGHHVKLWITMNEPYTRNMTYSAGHNLLKAHALAWHVYNEKFRHAQNGKISIALQADWIEPACPFSQKDKEVAERVLEFDIGWLAEPIFGSGDYPWVMRDWLNQRNNFLLPYFTEDEKKLIQGTFDFLALSHYTTILVDSEKEDPIKYNDYLEVQEMTDITWLNSPSQVAVVPWGLRKVLNWLKFKYGDLPMYIISNGIDDGLHAEDDQLRVYYMQNYINEALKAHILDGINLCGYFAYSFNDRTAPRFGLYRYAADQFEPKASMKHYRKIIDSNGFPGPETLERFCPEEFTVCTECSFFHTRKS
modifications: left off: small tags and cut ends
notes: recombinant soluble α-klotho ectodomain, mouse aa 35-982 and human aa 34-981, FLAG- or Strep/His-tagged, purified from HEK293 cells
B1: the “binding of FGF21 to any of the FGFR isoforms” value in experiment [1] is listed as “did not mediate binding; also recorded: did not lead to complex formation; also recorded: did not bind any of the FGFR isoforms”.

B2: FGF23: recombinant fibroblast growth factor 23 protein from R&D Systems (protein)
chain: YPDTSPLLGSNWGSLTHLYTATARTSYHLQIHRDGHVDGTPHQTIYSALMITSEDAGSVVITGAMTRRFLCMDLHGNIFGSLHFSPENCKFRQWTLENGYDVYLSQKHHYLVSLGRAKRIFQPGTNPPPFSQFLARRNEVPLLHFYTVRPRRHTRSAEDPPERDPLNVLKPRPRATPVPVSCSRELPSAEEGGPAASDPLGVLRRGRGDARGGAGGADRCRPFPRFV
Consider B2, for which, in the experiment on male BALB/c mice, the “Endocardial % EF” value was determined as 61.57 ± 3.48%, the “Endocardial % FAC” value is recorded as 51.38 ± 2.02%, the Endocardial Area; s was 4.88 ± 0.34 mm² and the “Endocardial major; d” value is recorded as 7.94 ± 0.09 mm. Besides, in the experiment on male BALB/c mice, the Epicardial Area: s came out at 19.4 ± 0.46 mm², the Epicardial Area; d came to 23.1 ± 0.45 mm², the Heart rate is listed as 452.70 ± 4.48 BPM and the “LV Mass; d” value turned out to be 122.10 ± 3.05 mg. In the experiment with male BALB/c mice, the “T; d” value worked out at 0.94 ± 0.02 mm. In the experiment on male BALB/c mice (i.v. 2 times per day for 5 days, mean ± SEM), this molecule registered an Endocardial Area; d of 9.93 ± 0.39 mm². In addition, the “peak fluorescence [Ca2+]i transients (F/F0)” value in experiment [2] (FGF23 10 ng/ml, 2 minutes perfusion) is recorded as “increased systolic”. In experiment [2] (FGF23 alone), the “cell contraction (cell shortening)” value was “increased cell contraction”.
